Molecular target: runt homology domain (RHD) of hRUNX1c (human)
Assay: BLI; biotinylated RHD loaded on streptavidin biosensors; CBFβ, CBFβ-SMMHC or mutants in solution at varying concentrations (50-600 nM); Octet RED96e; 20 mM Tris-HCl pH 8.0, 100 mM KCl, 1 mM EDTA, 1 mM DTT, 0.02% Tween 20; global fit

Substance | Kd [nM]
core-binding factor β (CBFβ) (from UniProt Q13951-2 1-187) (natural protein) | 64.7
CBFβ-SMMHC (from UniProt Q13951 1-165) | 13
